These results are taken from patent publication US20070224615A1.

Assay [1] deals with CCR5-tTA fusion construct containing the low efficiency cleavage site (UniProt P51681). In words: cell-based or functional assay.
The target in assay [2] is EGFR-TEV-NIa-Pro cleavage (Leu)-tTA (human) (UniProt P00533). In words: cell-based or functional assay.

UniProt P51681, sequence (P51681 whole entry, the tested form may be a part): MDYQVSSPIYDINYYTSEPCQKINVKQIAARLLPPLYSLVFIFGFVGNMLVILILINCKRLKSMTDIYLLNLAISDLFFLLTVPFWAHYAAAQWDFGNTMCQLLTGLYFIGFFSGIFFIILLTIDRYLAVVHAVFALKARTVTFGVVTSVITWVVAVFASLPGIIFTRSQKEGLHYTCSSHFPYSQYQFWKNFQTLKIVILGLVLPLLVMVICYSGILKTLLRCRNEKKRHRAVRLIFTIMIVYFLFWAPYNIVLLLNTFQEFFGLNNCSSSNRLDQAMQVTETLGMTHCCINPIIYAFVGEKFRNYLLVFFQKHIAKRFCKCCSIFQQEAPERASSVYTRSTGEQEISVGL

Substance “Regulated on Activation, Normal T-Cell Expressed and Secreted (RANTES) (from UniProt P13501 24-91) (ligand)” came in with an induction of β-galactosidase reporter gene expression over background at 1 µg/ml RANTES, clone 34 cells with stable ARRB2-TEV-NIa protease in assay [1] of 40 fold.

The substance “human Transforming Growth Factor-Alpha (from UniProt P01135 40-89) (ligand)” gave an increase of luciferase reporter gene activity at 100 ng/ml ligand, cells co-expressing PLC Gamma1-TEV in assay [2] of 18.3 fold.
